{
  "source": "patent US8318206",
  "key": {"[1]": {"target": "T1, Fmoc-Gly-Phe-Cys-NH2 (peptide 1)", "T1 chain": "GFC"}, "[2]": {"target": "T2, Fmoc-Gly-d-Phe-d-Cys (peptide 2) (not fully specified)", "T2 chain": "GFC"}},
  "data": [
    {"protein": "thermolysin from B. thermoproteolyticus Rokko (protein) ITGTSTVGVGRGVLGDQKNINTTYSTYYYLQDNTRGNGIFTYDAKYRTTLPGSLWADADNQFFASYDAPAVDAHYYAGVTYDYYKNVHNRLSYDGNNAAIRSSVHYSQGYNNAFWNGSQMVYGDGDGQTFIPLSGGIDVVAHELTHAVTDYTAGLIYQNESGAINEAISDIFGTLVEFYANKNPDWEIGEDVYTPGISGDSLRSMSDPAKYGDPDHYSKRYTGTQDNGGVHINSGIINKAAYLISQGGTHYGVSVVGIGRDKLGKIFYRALTQYLTPTSNFSQLRAAAVQSATDLYGSTSQEVASVKQAFDAVGVK", "values": [
      {"measurement": "HPLC of the supernatant after thermolysin treatment (cleaved fragment)", "setting": "[1]", "result": "HPLC of the supernatant detected the presence of Fmoc-Gly only"},
      {"measurement": "shift in the plasmon resonance peak (UV-visible spectra), 6 h after addition of 7.2 nM thermolysin", "setting": "[1]", "result": "a clear shift in the plasmon resonance peak from 565 nm to 532 nm 6 h after addition of 7.2 nM thermolysin"},
      {"measurement": "Δ ratio A/D over a period of 47 h, 7.2 nM thermolysin", "setting": "[1]", "result": "The Δ ratio A/D increases over a period of 47 h for 7.2 nM and 2.08 zM, to 96.5% and 25.2% respectively"},
      {"measurement": "Δ ratio A/D over a period of 47 h, 2.08 zM thermolysin", "setting": "[1]", "result": "The Δ ratio A/D increases over a period of 47 h for 7.2 nM and 2.08 zM, to 96.5% and 25.2% respectively"},
      {"measurement": "dispersion of nanoparticle aggregate", "setting": "[2]", "result": "nanoparticles functionalised with Fmoc-Gly-d-Phe-d-Cys did not disperse upon introduction of thermolysin"}
    ]}
  ]
}
